Data on one molecule can be found in PMC4102243, “Rett-causing mutations reveal two domains critical for MeCP2 function and for toxicity in MECP2 duplication syndrome mice”.

In this data set the target is MeCP2 C-terminal fragment WT (human, UniProt P51608 274-340). The data set can be described thus: EMSA; 10 mM Tris-HCl pH 7.4, 50 mM KCl, 0.5 mM MgCl2, 0.1 mM EDTA, 5% glycerol, 0.1 mg/ml BSA, 66.7 nM probe, room temperature 30 min; 1% agarose gel, 1X TAE, 4 C. Conditions: protein: recombinant; tags: N-terminal GST (pGEX-5x3); label: none (ethidium bromide post-stain); blunt. For orientation: Mobility shift assays separate free from complexed probe on a gel.
Sequence of MeCP2 C-terminal fragment WT (P51608 274-340): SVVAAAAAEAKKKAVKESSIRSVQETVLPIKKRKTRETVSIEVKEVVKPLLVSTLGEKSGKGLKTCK

B1: 64-bp EMSA probe (dsDNA)
DNA 1: GGACTCCAGGTCCAGGACCGCGTTTTTCGCGCGCACGGCGCGGGAGGTCCAGCTGTCCACCTCC
DNA 2: GGAGGTGGACAGCTGGACCTCCCGCGCCGTGCGCGCGAAAAACGCGGTCCTGGACCTGGAGTCC
On to B1, for which the binding result is given as “binds”.
